Results on 2 proteins are retold here after US20230303994.

Numbering of substitutions follows the chain as printed. In names and notes the source's numbering stands.

Sequence of insulin glargine, P01308 (P01308 whole entry, looked up): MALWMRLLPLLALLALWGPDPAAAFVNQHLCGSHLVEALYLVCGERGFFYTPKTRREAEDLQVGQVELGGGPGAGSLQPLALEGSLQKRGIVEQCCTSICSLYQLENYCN

B1: porcine trypsin variant S172A (SEQ ID NO: 2) (protein)
chain: IVGGYTCAANSIPYQVSLNSGSHFCGGSLINSQWVVSAAHCYKSRIQVRLGEHNIDVLEGNEQFINAAKIITHPNFNGNTLDNDIMLIKLSSPATLNSRVATVSLPRSCAAAGTECLISGWGNTKSSGSSYPSLLQCLKAPVLSDSSCKSSYPGQITGNMICVGFLEGGKDACQGDSGGPVVCNGQLQGIVSWGYGCAQKNKPGVYTKVCNYVNWIQQTIAAN
Take B1: in the data set with pre-pro-human insulin, the “Activity PPI cleavage” value is “yes” and the Selectivity came out at 62.1%. Moreover, in the data set with insulin glargine, P01308, the exopeptidase activity result is listed as “the concentration of insulin glargine is decreased over time”. In the data set with pre-pro-insulin glargine, the Purity Insulin Glargine was found to be 53.6 area %, the Yield amounted to 65%, the desArg is 19.1 area % and the desThr came out at 5.2 area %.

B2: trypsin variant SEQ ID NO: 41 (protein)
chain: B1 chain with F24R, Y131H, W193S
With B2, in the data set with pre-pro-human insulin, the “Activity PPI cleavage” value is reported as “yes” and the Selectivity is given as over 90%. In addition, in the data set with pre-pro-insulin glargine, the Purity Insulin Glargine came out at 82.8 area %, the Yield is over 90%, the desArg is under 0.5 area % and the desThr came to 1.9 area %.
